The data set is described as follows: amyloid nucleation score (Sup35N fusion, yeast selection) (log enrichment); library NNK1; higher = more nucleation; inactive = no reads after selection. The gist of the method: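 The nucleation score is the log enrichment of output over input reads, calculated with DiMSum and centred on the mode score of non-aggregating sequences. Sequences with under 100 input reads were excluded. Reads came from Illumina sequencing of plasmid inserts from psi-negative yeast expressing Sup35N fused to peptides of 20 random codons, induced 24 hours with 100 μM copper sulfate and grown 7 days at 30°C without adenine and uracil.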

± gives the uncertainty stated by the source.

The substance YKGMSAHFGLILFDCCLNGS had an amyloid nucleation score of 7.516 ± 0.067.
The entry for ISYGKDNESGCLLHYFHAWV is “inactive”.
In the case of VKVIKLRHSLGTFFCSAQLQ, the amyloid nucleation score entry was “inactive”.
The value for GCSIEFFDYGGY was -0.183 ± 0.74.
MYISYLYFCYKRSMYFG gave an amyloid nucleation score of 0.718 ± 1.1.
ILDVKAPR returned an amyloid nucleation score of 0.446 ± 0.64.
The figure for TISSLLFI is -0.252 ± 0.47; for DEDDSD it is 0.471 ± 0.46.
The entry for CPMWYYCRSVLSSLAVSDCS is “inactive”; for KNVSRVCV it is “inactive”; for NLVYTTDT it is 0.467 ± 0.41.
The figure for KRRGSFKVLYSHSVGLYQSF is 2.79 ± 0.14; for RCSLPLWFQYYGAMTVHGTV it is 0.61 ± 0.35.
For YSSSPVFGCEAPGDYQLGY, the amyloid nucleation score stood at 1.24 ± 0.76.
Substance NFVFGHNGGACSYVGLLM showed an amyloid nucleation score of 1 ± 0.7.
The figure for LNSKILGKSRTCDENSWPFV is -0.27 ± 0.51; for RCELMNIEFWVKHYGSSSGF it is 1.64 ± 0.18; for SAQSTILICLHKGLDMSERH it is 5.8 ± 0.077.
As to VRCLGWVDHERVRDLCIHSG, the amyloid nucleation score was -0.414 ± 0.31.
In turn, GRECLRCTFKMVGWVATEIA came in with an amyloid nucleation score of -0.521 ± 0.71.
Substance AMWYMKCNTYKVWLGDMYLV registered an amyloid nucleation score of 0.193 ± 0.18.
In the case of CSTFRVDFFSPCFLL, the amyloid nucleation score turned out to be 6.006 ± 0.05.
The value for PLTFSCSLGKGFTWYFCLNV was -0.196 ± 0.45; that for MWLKSNNWRNKADDLQGKVD was 0.523 ± 0.58.
The value for LITLREVTYIFNWTFLNYLR was -0.305 ± 0.43; that for EGLLFYEYSSMCVEKDWIKN was -0.136 ± 0.43; that for SNMSHLNRG was 0.649 ± 0.75.
The value for SIGRLIPYFNQTPFCIS was -0.338 ± 0.23.
As for TYYAAMRDGFVYHTKGLMAS, the amyloid nucleation score was -0.209 ± 1.
FNLGTNK had an amyloid nucleation score of -0.442 ± 0.3.
The value for SIDCLCYYAPRLFRMHVELT was -0.656 ± 0.89; that for YAEVGGLYSTSGVRRKNGGR was 0.346 ± 0.32.
Take YVPALYRVSGLCYLLTNHEF: the amyloid nucleation score was 0.557 ± 0.18.
The figure for GVVTLFTEYSSEPCRCGFRQ is -0.21 ± 0.53.
The figure for NRYPTLFWCVRNRVWECLRV is 0.392 ± 0.46.
The figure for YWLLT is -0.501 ± 0.55; for LSSYGYHMRVDHVTNANPSR it is 0.159 ± 0.43; for FLVWIMGSFPTGRGANRRNS it is -0.465 ± 0.51.
FGCSSLCTLSTVEE gave an amyloid nucleation score of -1.21 ± 0.64.
The figure for LVIYVVSDDSVGLTNWRIVA is 3.76 ± 0.065; for TFGSVGYI it is 0.116 ± 0.45; for VTLGHHDRSCFYEDSVQTRD it is 0.832 ± 0.49.
The value for TPTSSIPTPPRFPALTC was -0.72 ± 0.41; that for LMWNLTLS was 0.949 ± 0.97.
The value for RLDYFLCITYMIDQDRWRIT was -0.254 ± 1.1.
With RGLQNCASSTVRESGR, the amyloid nucleation score was 0.009 ± 1.
As for WITTMHNLHELNHRGPPPKL, the amyloid nucleation score was -0.972 ± 1.8.
Substance LTFMFTTRIA came in with an amyloid nucleation score of -0.912 ± 1.1.
The value for MSSSKGVVYDCFCSMWWLLP was 0.018 ± 0.73; that for RSMACVRLFDFQSQLYFRVF was -0.186 ± 0.77.
The value for HNMHFSPWIKCNSVYEFSGR was 1.56 ± 0.73; that for SNALVFNFSRHAFVNIVFVY was 4.04 ± 0.13; that for DWNSNPPHSASAGLPLRFWK was “inactive”.
The value for GNICSTLAINVGLIFSKECV was “inactive”.
As for FCDPVYMPSERFWNAYMCTL, the amyloid nucleation score amounted to 1.19 ± 0.9.
As to FMWKINWRENLYRLYSFSAY, the amyloid nucleation score is -0.11 ± 0.51.
The figure for TFVGLRVSAHRTQWALGDT is -1.51 ± 2.4; for NLMEKRSLRAIRWIVRSWAG it is 0.839 ± 0.62; for LRNAVFVDPSCNYYVFILRL it is 3.72 ± 0.15.
The value for KCRVHSSN was -1.08 ± 1.5.
The value for TAWHLSMNALGNSSLDFKGR was 1.51 ± 0.16; that for LTLLA was -0.096 ± 1.7.
With RSQPLGADVVKLPASRLGRL, the amyloid nucleation score was -1.11 ± 0.94.
The value for TSDGHFSSQVDSVDESKVGE was -0.534 ± 0.46; that for DFVRMSRPHG was 0.563 ± 0.51.
The figure for TKVGFFQRLGYEQVCNCKML is 0.244 ± 0.49; for IVDCYSLDRYRVLLWSS it is 0.566 ± 0.36.
Consider TCHLLPSICKSLWNHDNHGL, for which the amyloid nucleation score result was “inactive”.
The value for SSCKWSSKPAHEFQVMTAPT was -0.007 ± 0.65; that for LSHLRSLYKGCSYRMHSWMY was 1.04 ± 0.58.
The value for AQNSWGGILSVTAGQEFYCL was -0.674 ± 1.7; that for TFCLLSINLEFINVLRLFKS was 3.58 ± 0.12.
The value for AMKLVPLNLYFKDNKNQSSC was -0.033 ± 0.31.
As to LLMEFI, the amyloid nucleation score was 1.46 ± 0.84.
The value for GYENGDGDERD was -0.403 ± 1.2.
The figure for HANLGFS is -0.742 ± 0.78; for DDTDLVLVMRRSIVERGMRE it is 0.437 ± 0.39; for IGHVNTYCCIADWSWVRGAG it is 8.895 ± 0.044.
The value for SHQSDGNWQMVYWCLLVRFT was -0.709 ± 0.56; that for ESAFHASVGALRMHTSSRVC was 1.09 ± 0.35.
As for GLFFNNKYA, the amyloid nucleation score is 0.54 ± 0.84.
On to GESRGS, for which the amyloid nucleation score is 0.473 ± 0.43.
The figure for KTSFSCSIRSSYVDWGLGDS is 2.66 ± 0.12.
The value for NADDISVRTGNTQESLSW was 0.275 ± 1.2; that for RFDSFAMVYDNMWVRCLNVR was -0.303 ± 0.53; that for HLIWL was -0.203 ± 1.1.
The figure for NLWLPAWCGLYQCNTGHSGY is 7.996 ± 0.043; for SHPNRTCKWLHSSVLRTPVL it is 0.313 ± 0.49; for TTVLRGLKTP it is -0.825 ± 1.5.
Take GLYSTGNFDVGRSLCDHMGS: the amyloid nucleation score is -0.492 ± 1.1.
The figure for FLNYVMDVLGGRIRDVWWFT is 0.829 ± 0.66; for IHGSRCVPKSQD it is 0.201 ± 0.38; for FRLGPLEQ it is -1.61 ± 1.7.
HFGAYLVVM: the amyloid nucleation score is -0.299 ± 0.35.
The value for SIMPWNLSVRSMWRFWMNLR was “inactive”.
LVNIHVIQKAFVGTVASSKV yielded an amyloid nucleation score of 5.07 ± 0.067.
With MTPEAL, the amyloid nucleation score is -0.063 ± 0.43.
The figure for DSSRNGKF is -0.563 ± 0.64.
The value for MWFRTAST was 6.339 ± 0.047.
The entry for FLMDNDKIHYGYISSVCTSY is “inactive”; for RETYLALRRYSDLTFINRTL it is 1.21 ± 0.29; for ESVIFFSCTYSSMMVSWTSR it is 0.382 ± 1.4.
Consider GVMRKNMNKAWFTRDIDSF, for which the amyloid nucleation score stood at 0.752 ± 0.41.
The value for IFTLGVALFSIVM was 4.24 ± 0.067.
The value for YWDGYEVDVNGVREYEGNAV was 0.305 ± 0.19.
The entry for MYCWY is “inactive”.
As to YNREWYYIWLLREFDVRKHS, the amyloid nucleation score was 1.43 ± 0.53.
The figure for YRGVQCFKATKNARVLLWVV is -0.051 ± 0.52.
The value for LDYPISVIVPGTDQSLEFLP was “inactive”; that for PHGKRPGHFLKVLLAFSWRW was 0.038 ± 0.56; that for LEGSNSFNLRNLQFALRGTL was 0.069 ± 0.45.
The value for YLWILDMAREDELHATCSGE was -0.558 ± 0.66.
For QAYLKVQVWLDRRNSI, the amyloid nucleation score entry was “inactive”.
The substance GSGKCVPGDTELAILGLKR showed an amyloid nucleation score of 0.299 ± 0.7.
The value for LICQLGEPQFNKFHWICSLD was -0.39 ± 1.7.
The entry for RGDLTPDARSYGPCSIHRWR is “inactive”; for KWKVR it is -0.068 ± 0.38.
The figure for CIYIQYYLNLTVFCRVRLNA is -0.516 ± 1.7; for VYFGRISLWLNMH it is -0.449 ± 0.59.
The substance RVSKYQYCIMYWRYRAI had an amyloid nucleation score of 0.442 ± 0.56.
With LFVLLQHLAATFYVQVLTSR, the amyloid nucleation score is -0.028 ± 0.89.
The figure for RVVLGTGDLVSCRFIFSLEK is -1.25 ± 0.44; for CDKTYPANSLCLKDFGQLEG it is -0.019 ± 0.64; for CNSLTLFRWYFNMVGNIQAN it is -0.143 ± 0.37.
The value for WDALLPLPAEFAYRATTMHA was 0.444 ± 1.1; that for CSWDYMVVR was -0.137 ± 0.98; that for SYYRLGACSRCHYFFMIEAR was “inactive”.
The figure for TNTFFLTILHPRFVKMGPCW is 4.55 ± 0.1; for GIRPPGKCMGWYLHMKFQSS it is -0.391 ± 0.59; for QFRCFHLL it is -0.026 ± 1.2.
VMVRTCACFIR: the amyloid nucleation score turned out to be 0.883 ± 0.51.
The figure for GSNGMRGLRWGL is -0.485 ± 0.31; for SGEDVSGCQDLFALVPMGQG it is 0.495 ± 0.51; for VSGTVLTIEYCPY it is 0.844 ± 0.27.
The value for MTIQVTIGNYLGLVYFFPLS was 1.05 ± 0.97.
The value for GTRVR was 1.51 ± 0.48; that for VDVHVGCRTIRL was 0.034 ± 0.32.
PRNVFMSKTNNHFQRAFSVT came in with an amyloid nucleation score of 0.925 ± 0.69.
The value for VRTLLWSS was -1.55 ± 2.4; that for SGYDDFWMTWTAKRVWHRAR was -0.436 ± 0.64.

The values are drawn from the supplement of paper PMC12042874.
